Results as given in patent publication US20240108738A1 (Bicycle, published 2024).
Numbered stars: 1 amine (or outer) side, 2 acyl side, 3 side chain; on linkers, the order of the positions; unused ones are H or OH. Bridge positions count the residues as written; N and C are the ends. Square brackets hold non-standard residues; d marks the D form. Primed or numbered codes have the meaning given here. Ends that are not written are not given here. 4MeOPhe = 4-methoxy-phenylalanine, COc1ccc(C[C@H](N[*:1])C(=O)[*:2])cc1; TBMT″ = 2,4,6-tris(bromomethyl)-s-triazine, scaffold on three Cys; TATA = O=C(CC[*:1])N1CN(C(=O)CC[*:2])CN(C(=O)CC[*:3])C1; Phe(4-CF3) = N[C@@H](Cc1ccc(C(F)(F)F)cc1)C(=O)O; Phe(4-CONH2) = NC(=O)c1ccc(C[C@H](N)C(=O)O)cc1; Phe(4-CN) = N#Cc1ccc(C[C@H](N)C(=O)O)cc1; Phe(4-Cl) = N[C@@H](Cc1ccc(Cl)cc1)C(=O)O; Phe(4-F) = N[C@@H](Cc1ccc(F)cc1)C(=O)O; Cba = N[C@@H](CC1CCC1)C(=O)O

B1: BCY16144 (peptide)
peptide: ACYLPD[Phe(4-Cl)]LCGDEYCA-NH2
modifications: linker 2-9-14 via TATA; N-terminus assumed
SMILES: CC(C)C[C@@H]1NC(=O)[C@H](Cc2ccc(Cl)cc2)NC(=O)[C@H](CC(=O)O)NC(=O)[C@@H]2CCCN2C(=O)[C@H](CC(C)C)NC(=O)[C@H](Cc2ccc(O)cc2)NC(=O)[C@@H](NC(=O)[C@H](C)N)CSCCC(=O)N2CN3CN(C2)C(=O)CCSC[C@@H](C(=O)N[C@@H](C)C(N)=O)NC(=O)[C@H](Cc2ccc(O)cc2)NC(=O)[C@H](CCC(=O)O)NC(=O)[C@H](CC(=O)O)NC(=O)CNC(=O)[C@H](CSCCC3=O)NC1=O
notes: scaffold TATA
B2: BCY15650 (peptide)
peptide: ACYLPDYLC[dA]DEYCA-NH2
modifications: linker 2-9-14 via TATA; N-terminus assumed
SMILES: CC(C)C[C@@H]1NC(=O)[C@H](Cc2ccc(O)cc2)NC(=O)[C@H](CC(=O)O)NC(=O)[C@@H]2CCCN2C(=O)[C@H](CC(C)C)NC(=O)[C@H](Cc2ccc(O)cc2)NC(=O)[C@@H](NC(=O)[C@H](C)N)CSCCC(=O)N2CN3CN(C2)C(=O)CCSC[C@H](NC1=O)C(=O)N[C@H](C)C(=O)N[C@@H](CC(=O)O)C(=O)N[C@@H](CCC(=O)O)C(=O)N[C@@H](Cc1ccc(O)cc1)C(=O)N[C@H](C(=O)N[C@@H](C)C(N)=O)CSCCC3=O
notes: scaffold TATA
B3: BCY16135 (peptide)
peptide: ACYLPD[Phe(4-F)]LCGDEYCA-NH2
modifications: linker 2-9-14 via TATA; N-terminus assumed
SMILES: CC(C)C[C@@H]1NC(=O)[C@H](Cc2ccc(F)cc2)NC(=O)[C@H](CC(=O)O)NC(=O)[C@@H]2CCCN2C(=O)[C@H](CC(C)C)NC(=O)[C@H](Cc2ccc(O)cc2)NC(=O)[C@@H](NC(=O)[C@H](C)N)CSCCC(=O)N2CN3CN(C2)C(=O)CCSC[C@@H](C(=O)N[C@@H](C)C(N)=O)NC(=O)[C@H](Cc2ccc(O)cc2)NC(=O)[C@H](CCC(=O)O)NC(=O)[C@H](CC(=O)O)NC(=O)CNC(=O)[C@H](CSCCC3=O)NC1=O
notes: scaffold TATA
B4: BCY16136 (peptide)
peptide: ACYLPD[4MeOPhe]LCGDEYCA-NH2
modifications: linker 2-9-14 via TATA; N-terminus assumed
SMILES: COc1ccc(C[C@@H]2NC(=O)[C@H](CC(=O)O)NC(=O)[C@@H]3CCCN3C(=O)[C@H](CC(C)C)NC(=O)[C@H](Cc3ccc(O)cc3)NC(=O)[C@@H](NC(=O)[C@H](C)N)CSCCC(=O)N3CN4CN(C3)C(=O)CCSC[C@@H](C(=O)N[C@@H](C)C(N)=O)NC(=O)[C@H](Cc3ccc(O)cc3)NC(=O)[C@H](CCC(=O)O)NC(=O)[C@H](CC(=O)O)NC(=O)CNC(=O)[C@H](CSCCC4=O)NC(=O)[C@H](CC(C)C)NC2=O)cc1
notes: scaffold TATA
B5: BCY16143 (peptide)
peptide: ACYLPD[Phe(4-CN)]LCGDEYCA-NH2
modifications: linker 2-9-14 via TATA; N-terminus assumed
SMILES: CC(C)C[C@@H]1NC(=O)[C@H](Cc2ccc(C#N)cc2)NC(=O)[C@H](CC(=O)O)NC(=O)[C@@H]2CCCN2C(=O)[C@H](CC(C)C)NC(=O)[C@H](Cc2ccc(O)cc2)NC(=O)[C@@H](NC(=O)[C@H](C)N)CSCCC(=O)N2CN3CN(C2)C(=O)CCSC[C@@H](C(=O)N[C@@H](C)C(N)=O)NC(=O)[C@H](Cc2ccc(O)cc2)NC(=O)[C@H](CCC(=O)O)NC(=O)[C@H](CC(=O)O)NC(=O)CNC(=O)[C@H](CSCCC3=O)NC1=O
notes: scaffold TATA
B6: BCY16142 (peptide)
peptide: ACYLPD[Phe(4-CF3)]LCGDEYCA-NH2
modifications: linker 2-9-14 via TATA; N-terminus assumed
SMILES: CC(C)C[C@@H]1NC(=O)[C@H](Cc2ccc(C(F)(F)F)cc2)NC(=O)[C@H](CC(=O)O)NC(=O)[C@@H]2CCCN2C(=O)[C@H](CC(C)C)NC(=O)[C@H](Cc2ccc(O)cc2)NC(=O)[C@@H](NC(=O)[C@H](C)N)CSCCC(=O)N2CN3CN(C2)C(=O)CCSC[C@@H](C(=O)N[C@@H](C)C(N)=O)NC(=O)[C@H](Cc2ccc(O)cc2)NC(=O)[C@H](CCC(=O)O)NC(=O)[C@H](CC(=O)O)NC(=O)CNC(=O)[C@H](CSCCC3=O)NC1=O
notes: scaffold TATA
B7: BCY16140 (peptide)
peptide: ACYLPD[Phe(4-CONH2)]LCGDEYCA-NH2
modifications: linker 2-9-14 via TATA; N-terminus assumed
SMILES: CC(C)C[C@@H]1NC(=O)[C@H](Cc2ccc(C(N)=O)cc2)NC(=O)[C@H](CC(=O)O)NC(=O)[C@@H]2CCCN2C(=O)[C@H](CC(C)C)NC(=O)[C@H](Cc2ccc(O)cc2)NC(=O)[C@@H](NC(=O)[C@H](C)N)CSCCC(=O)N2CN3CN(C2)C(=O)CCSC[C@@H](C(=O)N[C@@H](C)C(N)=O)NC(=O)[C@H](Cc2ccc(O)cc2)NC(=O)[C@H](CCC(=O)O)NC(=O)[C@H](CC(=O)O)NC(=O)CNC(=O)[C@H](CSCCC3=O)NC1=O
notes: scaffold TATA
B8: BCY16132 (peptide)
peptide: ACY[Cba]PDYLC[dA]DEYCA-NH2
modifications: linker 2-9-14 via TATA; N-terminus assumed
SMILES: CC(C)C[C@@H]1NC(=O)[C@H](Cc2ccc(O)cc2)NC(=O)[C@H](CC(=O)O)NC(=O)[C@@H]2CCCN2C(=O)[C@H](CC2CCC2)NC(=O)[C@H](Cc2ccc(O)cc2)NC(=O)[C@@H](NC(=O)[C@H](C)N)CSCCC(=O)N2CN3CN(C2)C(=O)CCSC[C@H](NC1=O)C(=O)N[C@H](C)C(=O)N[C@@H](CC(=O)O)C(=O)N[C@@H](CCC(=O)O)C(=O)N[C@@H](Cc1ccc(O)cc1)C(=O)N[C@H](C(=O)N[C@@H](C)C(N)=O)CSCCC3=O
notes: scaffold TATA
B9: BCY15639 (peptide)
peptide: ACY[Cba]PDYLCGDEYCA-NH2
modifications: linker 2-9-14 via TATA; N-terminus assumed
SMILES: CC(C)C[C@@H]1NC(=O)[C@H](Cc2ccc(O)cc2)NC(=O)[C@H](CC(=O)O)NC(=O)[C@@H]2CCCN2C(=O)[C@H](CC2CCC2)NC(=O)[C@H](Cc2ccc(O)cc2)NC(=O)[C@@H](NC(=O)[C@H](C)N)CSCCC(=O)N2CN3CN(C2)C(=O)CCSC[C@@H](C(=O)N[C@@H](C)C(N)=O)NC(=O)[C@H](Cc2ccc(O)cc2)NC(=O)[C@H](CCC(=O)O)NC(=O)[C@H](CC(=O)O)NC(=O)CNC(=O)[C@H](CSCCC3=O)NC1=O
notes: scaffold TATA

What follows are binders tested against T1, Human NKp46 His tag (Acro Biosystems, NC1-H52H4) (human, UniProt O76036 22-255) (assay: FP competition vs BCY15035).
T1 construct: bought; also called human NKp46-his tagged protein
Experimental: The untagged competitor peptides were diluted in assay buffer 25 mM HEPES, 100 mM NaCl, 0.01% P20, pH 7.4. to a top concentration of 5000 nM and diluted 2-fold in 11 steps. The human NKp46-his tagged protein (AcroBiosystems) was diluted to 40 nM final concentration in the assay. […] The total volume of 25 μL was prepared in black walled and flat-bottomed low binding low volume 384 well plates. Measurements were performed using Envision (PerkinElmer) equipped with the excitation filter FITC FP 480, emission filter FITC FP P-pol 535 and 2nd emission filter FITC FP S-pol 535 and set to 30 flashes. The gain was set in a well containing tracer alone without target protein.

T1 sequence (O76036 22-255 limits assumed): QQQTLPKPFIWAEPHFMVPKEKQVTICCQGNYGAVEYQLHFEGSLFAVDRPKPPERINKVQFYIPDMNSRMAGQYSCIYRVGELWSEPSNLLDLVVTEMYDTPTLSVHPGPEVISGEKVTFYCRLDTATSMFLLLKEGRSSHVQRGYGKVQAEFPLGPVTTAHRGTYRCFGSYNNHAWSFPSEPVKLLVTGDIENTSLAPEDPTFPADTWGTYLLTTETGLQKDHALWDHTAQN

| Ki | Binder |
| --- | --- |
| 718 nM | B1 |
| 282 nM | ACYLPDWLCGDEYCA-NH2 (linker 2-9-14 via TATA; also: scaffold TATA, TATB or TBMT, scaffold TATA) [BCY14455] |
| 16 nM | B2 |
| 39 nM | ACYLPAYLCGDEYCA-NH2 (linker 2-9-14 via TATA; also: cyclised with TATA, TATB or TBMT, scaffold TATA) [BCY15656] |
| 10 nM | Ac-CY[Cba]PDYLC[dA]DEYC-NH2 (linker 1-8-13 via TATA, scaffold TATA) [BCY16133] |
| 639 nM | B3 |
| 269 nM | B4 |
| 464 nM | B5 |
| 317 nM | B6 |
| 122 nM | B7 |
| 8 nM | B8 |
| 17 nM | B9 |

These binders were tested against T2, Human NKp46 Fc tag (Acro Biosystems, NC1-H5257) (human, UniProt O76036 22-255) (assay: SPR Method 1 and/or 2).
T2 construct: bought; also called Fc-tagged human NKp46
Outline: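 Fc-tagged human NKp46 captured on anti-human IgG surface (500–1000 RU); compounds run in PBS-P+ with 2% DMSO at 25 °C, 50 μL/min, 60 s association, 400 s dissociation. Double-referenced, DMSO-corrected; KD from steady-state 1:1 fit, kinetic constants from kinetic 1:1 fit where appropriate.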

T2 sequence (O76036 22-255 limits assumed): as above

| Kd | Binder |
| --- | --- |
| 230 nM | ACYLPDWLCGDEYCA-NH2 (linker 2-9-14 via TATA; also: scaffold TATA, TATB or TBMT, scaffold TATA) [BCY14455] |
| 10 nM | B2 |
| 34 nM | ACYLPAYLCGDEYCA-NH2 (linker 2-9-14 via TATA; also: cyclised with TATA, TATB or TBMT, scaffold TATA) [BCY15656] |
| 4.9 nM | Ac-CY[Cba]PDYLC[dA]DEYC-NH2 (linker 1-8-13 via TATA, scaffold TATA) [BCY16133] |
| 3.9 nM | B8 |
| 11 nM | B9 |

These binders were tested against T3, human CD16a F176 variant, biotinylated (human, UniProt P08637 17-208, C-terminally biotinylated) (assay: SPR).
T3 construct: supplier is told for the AlphaScreen assay only; also called F Variant; FcγRIIIA F variant
Experimental: The SPR analysis was run at 25° C. at a flow rate of 50 μl/min with 60 seconds association and dissociation between 60 and 200 seconds. Data were corrected for DMSO excluded volume effects. All data were double-referenced for blank injections and reference surface using standard processing procedures and data processing and kinetic fitting were performed using Scrubber software, version 2.0c (BioLogic Software). Data were fitted using simple 1:1 binding model allowing for mass transport effects where appropriate.
For analysis of peptide binding, a Biacore 8k+ instrument was used with a CM5 chip (Cytiva). All experiments were carried out at 25° C. Streptavidin was immobilized on all flow cells by standard amine coupling chemistry. The running buffer was HBS-N(Cytiva, 10 mM HEPES, 0.15 M NaCl, pH 7.4) and the flow rate was 10 μl/min. The carboxymethyl dextran surface was activated with a 1:1 ratio of 0.4 M 1-ethyl-3-(3-dimethylaminopropyl) carbodiimide hydrochloride (EDC)/0.1 M N-hydroxy succinimide (NHS) (Cytiva) for 420s. Streptavidin (ProSpec, cat no. PRO-791) was diluted to 0.2 mg/ml in 10 mM sodium acetate pH 4.5 and was injected onto the chip surface for 600 s. Residual activated groups were blocked with a 420 s injection of 1 M ethanolamine (pH 8.5). The final surface density was 2000-3000 RU. Biotinylated CD16a was diluted to 5 μg/ml in HBS-N and was captured on flow cell 2 only of the streptavidin chip at a flow rate of 10 μl/min to 1500-2500 RU. The buffer was then changed to PBS-P+(Cytiva) supplemented with 0.5-2% DMSO. […] The flow rate was 30 μl/min with 100 s association and 400 s dissociation. Data were corrected for DMSO volume exclusion effects. All data were double-referenced against blank injections and reference surface response using standard processing procedures. Data processing and kinetic fitting was performed using Biacore Insight Evaluation Software with Extended Screening and Characterization Extension (Cytiva). Data were fitted using steady state affinity 1:1 binding model to determine KD. Data were fitted using kinetic 1:1 binding model to determine kinetic constants where appropriate.

T3 sequence (P08637 17-208 limits assumed, change not shown): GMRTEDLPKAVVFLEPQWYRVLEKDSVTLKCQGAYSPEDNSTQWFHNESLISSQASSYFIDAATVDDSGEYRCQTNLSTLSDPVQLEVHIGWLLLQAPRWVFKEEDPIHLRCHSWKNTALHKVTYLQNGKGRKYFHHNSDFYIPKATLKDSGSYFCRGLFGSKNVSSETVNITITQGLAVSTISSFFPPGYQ

| Kd | Binder |
| --- | --- |
| 2150 nM | ACRXSVEDPCGAWCA (CiR[6ClTrp]SVEDPCiiGAWCiii, scaffold TBMT) [BCY19050] |
| 2820 nM | ACVGL[Cba]ELGPCSDLCA-NH2 (linker 2-11-15 via TBMT″, scaffold TBMT) [BCY16509] |
| 2980 nM | ACVGLXELGPCSDLCA (CiVGL[tBuAla]ELGPCiiSDLCiii, scaffold TBMT) [BCY16508] |
| 1600 nM | ACRXSVEDPCGAWCA (CiR[6MeTrp]SVEDPCiiGAWCiii, scaffold TBMT) [BCY19046] |
